Among the data in paper PMC6385319 are FRET efficiency (growth cone) values, retold here.

The assay concerns the target T1, mCherry-APPL1-delta-PTB.
T1 sequence (Q9UKG1 whole entry, species assumed, looked up): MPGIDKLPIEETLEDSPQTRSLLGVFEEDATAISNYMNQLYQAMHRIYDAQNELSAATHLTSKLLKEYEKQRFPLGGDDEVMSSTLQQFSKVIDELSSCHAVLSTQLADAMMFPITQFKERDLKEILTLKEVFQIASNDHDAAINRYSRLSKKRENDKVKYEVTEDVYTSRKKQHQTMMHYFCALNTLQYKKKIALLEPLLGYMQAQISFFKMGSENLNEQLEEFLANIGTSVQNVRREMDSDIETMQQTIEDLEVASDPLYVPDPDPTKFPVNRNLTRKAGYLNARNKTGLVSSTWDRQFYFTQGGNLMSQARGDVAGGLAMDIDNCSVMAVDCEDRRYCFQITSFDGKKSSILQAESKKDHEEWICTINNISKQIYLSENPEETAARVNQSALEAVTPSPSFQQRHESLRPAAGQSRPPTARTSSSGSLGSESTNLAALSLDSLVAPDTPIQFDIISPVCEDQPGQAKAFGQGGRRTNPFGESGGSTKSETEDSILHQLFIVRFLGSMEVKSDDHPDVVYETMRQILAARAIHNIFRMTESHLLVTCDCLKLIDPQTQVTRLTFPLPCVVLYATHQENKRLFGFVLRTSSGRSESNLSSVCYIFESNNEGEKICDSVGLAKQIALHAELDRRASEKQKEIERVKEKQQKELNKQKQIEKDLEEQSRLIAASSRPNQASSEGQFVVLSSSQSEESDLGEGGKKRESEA
As to the kind of experiment: FRET or BRET; FRET/FLIM in live primary hippocampal neurons at DIV 7, 37 °C; GFP-Akt1 donor, mCherry fusion acceptor; donor lifetime measured in cell body and growth cone; untreated. In general terms: BRET reads energy transfer from a luciferase to a nearby fluorophore.

GFP-Akt1, sequence (P31749 whole entry, the tested form may be a part): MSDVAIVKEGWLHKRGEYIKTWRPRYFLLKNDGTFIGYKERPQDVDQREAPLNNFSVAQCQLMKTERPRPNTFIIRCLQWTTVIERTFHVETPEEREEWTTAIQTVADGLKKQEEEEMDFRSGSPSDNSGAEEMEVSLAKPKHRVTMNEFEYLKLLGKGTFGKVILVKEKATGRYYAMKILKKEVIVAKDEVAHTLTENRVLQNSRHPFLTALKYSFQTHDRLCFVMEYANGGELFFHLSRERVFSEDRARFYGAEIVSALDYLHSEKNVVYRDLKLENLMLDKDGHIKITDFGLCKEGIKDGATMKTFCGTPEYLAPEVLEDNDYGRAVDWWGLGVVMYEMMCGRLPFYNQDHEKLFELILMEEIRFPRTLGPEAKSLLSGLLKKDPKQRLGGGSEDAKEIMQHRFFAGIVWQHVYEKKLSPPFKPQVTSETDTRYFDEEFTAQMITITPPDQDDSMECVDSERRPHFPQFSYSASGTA

For GFP-Akt1 (from UniProt P31749 1-480), the FRET efficiency (growth cone) is less than 1%.
